Earlier results, collected in article PMC6194691.

Target: transferrin receptor (Rattus norvegicus) (UniProt Q99376)
UniProt Q99376, sequence (Q99376 whole entry): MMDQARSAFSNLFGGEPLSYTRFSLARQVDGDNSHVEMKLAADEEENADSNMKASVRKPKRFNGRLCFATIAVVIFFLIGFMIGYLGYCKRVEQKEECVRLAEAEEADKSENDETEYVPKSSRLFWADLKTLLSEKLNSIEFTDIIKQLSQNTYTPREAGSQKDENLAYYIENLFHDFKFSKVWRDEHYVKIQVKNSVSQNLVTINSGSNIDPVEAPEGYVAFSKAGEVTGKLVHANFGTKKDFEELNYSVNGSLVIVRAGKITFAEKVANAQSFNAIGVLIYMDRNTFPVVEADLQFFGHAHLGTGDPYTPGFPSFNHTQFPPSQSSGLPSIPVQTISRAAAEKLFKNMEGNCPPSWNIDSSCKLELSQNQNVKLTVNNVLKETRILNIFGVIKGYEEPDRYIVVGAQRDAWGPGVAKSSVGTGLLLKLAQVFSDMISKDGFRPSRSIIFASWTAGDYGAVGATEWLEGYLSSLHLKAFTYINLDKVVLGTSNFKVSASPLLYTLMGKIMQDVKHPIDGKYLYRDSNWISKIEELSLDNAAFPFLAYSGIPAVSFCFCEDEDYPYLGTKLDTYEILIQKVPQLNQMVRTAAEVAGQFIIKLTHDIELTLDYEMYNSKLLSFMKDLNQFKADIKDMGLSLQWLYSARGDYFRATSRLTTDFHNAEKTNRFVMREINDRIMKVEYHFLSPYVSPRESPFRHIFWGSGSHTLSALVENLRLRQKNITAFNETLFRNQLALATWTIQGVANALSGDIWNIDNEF

In the case of apo-transferrin (from UniProt P12346), the Kd is listed as < 0.03 µM.
